These results are taken from PMC3763809.

The target in assay [1] is H3(1-132)-LEEGLG nucleosome, second Glu of the tail to Ala (Drosophila | human) (UniProt P02299). In words: ITC. (In general: ITC needs no label: the signal is the heat of the interaction.)
The target in assay [2] is H3(1-132)-LEEGLG nucleosome, first Glu of the tail to Ala (Drosophila | human) (UniProt P02299). The experiment in a line: ITC.

CENP-C central region, CENP-C(444-537), sequence (Q03188 444-537): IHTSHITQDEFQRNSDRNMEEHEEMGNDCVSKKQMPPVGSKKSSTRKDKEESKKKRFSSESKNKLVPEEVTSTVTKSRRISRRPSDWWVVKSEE

On to “CENP-C central region, CENP-C(444-537) (from UniProt Q03188 444-537) (domain or fragment)”, for which the factor of change of Kd against the H3(1-132)-LEEGLG nucleosome in assay [1] was 10 fold; in assay [2], 3 fold.
